In paper PMC8427755:

Columns and labels:
[1] = target: FcγRIIIa-F158 on transfected Jurkat cells (human) (UniProt P08637); test: flow cytometry on cells; competitive binding on FcγRIIIa-F158-transfected Jurkat cells; FITC-conjugated anti-FcγRIIIa 3G8 (0.5 ug/mL) with 17-2168 nM of the tested molecule, 20 min, 4°C, PBS pH 7.4; mean of 2 experiments
[2] = target: FcγRIIa-R131 on transfected HEK cells (human); test: flow cytometry on cells; competitive binding on cells transfected with FcγRIIa-H131, FcγRIIa-R131, FcγRIIb or FcγRI; Alexa-labelled rituximab (30 ug/mL) with the tested molecule, PBS pH 7.4; mean of 2 experiments
[3] = target: FcγRIIa-H131 on transfected cells (human) (UniProt P12318); test: as above
Chain of UniProt P12318 (P12318 34-317): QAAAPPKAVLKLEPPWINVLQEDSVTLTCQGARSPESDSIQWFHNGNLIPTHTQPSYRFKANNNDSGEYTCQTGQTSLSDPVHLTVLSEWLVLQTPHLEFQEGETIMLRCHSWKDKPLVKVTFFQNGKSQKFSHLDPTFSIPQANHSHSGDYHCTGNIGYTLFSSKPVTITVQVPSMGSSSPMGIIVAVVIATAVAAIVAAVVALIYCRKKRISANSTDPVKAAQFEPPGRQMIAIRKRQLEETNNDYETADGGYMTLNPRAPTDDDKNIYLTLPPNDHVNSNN

[4] = target: FcγRIIb on transfected HEK cells (human) (UniProt P31994); test: as above
Chain of UniProt P31994 (P31994 43-310): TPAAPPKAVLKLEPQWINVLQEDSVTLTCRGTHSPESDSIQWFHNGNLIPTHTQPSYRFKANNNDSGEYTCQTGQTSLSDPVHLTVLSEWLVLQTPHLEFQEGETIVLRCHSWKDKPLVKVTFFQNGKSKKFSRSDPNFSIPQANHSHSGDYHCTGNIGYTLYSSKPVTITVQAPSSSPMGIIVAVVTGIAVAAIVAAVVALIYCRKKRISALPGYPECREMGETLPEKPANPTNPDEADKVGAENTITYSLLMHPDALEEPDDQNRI

[5] = target: FcγRI on transfected Jurkat cells (human) (UniProt P12314); test: as above
Chain of UniProt P12314 (P12314 16-374): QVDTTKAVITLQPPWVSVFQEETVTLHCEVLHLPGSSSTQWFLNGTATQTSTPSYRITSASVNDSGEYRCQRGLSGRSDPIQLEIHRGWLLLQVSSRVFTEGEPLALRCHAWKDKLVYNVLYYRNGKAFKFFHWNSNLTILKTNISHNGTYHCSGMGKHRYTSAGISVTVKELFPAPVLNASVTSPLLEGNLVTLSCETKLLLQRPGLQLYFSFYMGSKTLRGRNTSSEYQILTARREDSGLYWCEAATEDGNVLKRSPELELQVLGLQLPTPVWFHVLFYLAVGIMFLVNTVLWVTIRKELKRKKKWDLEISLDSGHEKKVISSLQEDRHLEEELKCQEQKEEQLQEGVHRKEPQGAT

[6] = target: FcγRI on transfected Jurkat cells (human) (UniProt P12314)
[7] = target: biotinylated mouse FcRn (Acrobiosystem) (mouse | not stated) (UniProt Q61559); test: SPR; Biacore T200, sensor chip CAP; biotinylated human or mouse FcRn captured; samples injected in single cycle kinetic mode, 25°C; 20 mM sodium phosphate, 150 mM NaCl, 0.05% Tween 20, pH 6.0; 1:1 Langmuir model, steady state model for IVIg on hFcRn
Chain of UniProt Q61559 (Q61559 22-297, chain 1 of 2): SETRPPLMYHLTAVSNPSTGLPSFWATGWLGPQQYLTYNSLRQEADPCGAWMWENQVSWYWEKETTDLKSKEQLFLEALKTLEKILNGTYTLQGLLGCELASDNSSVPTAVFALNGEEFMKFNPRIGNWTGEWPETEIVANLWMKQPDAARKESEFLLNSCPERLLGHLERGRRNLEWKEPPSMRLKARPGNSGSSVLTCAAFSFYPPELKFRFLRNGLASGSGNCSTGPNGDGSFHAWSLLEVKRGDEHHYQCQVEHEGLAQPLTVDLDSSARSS
Chain of UniProt Q61559 (P01887 21-119, chain 2 of 2, further chain): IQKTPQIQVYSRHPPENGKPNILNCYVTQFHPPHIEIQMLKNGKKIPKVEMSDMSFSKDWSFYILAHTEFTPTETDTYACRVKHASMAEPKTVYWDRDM

[8] = target: biotinylated human FcRn (Acrobiosystem) (human) (UniProt P55899); test: as above
[9] = target: human FcRn expressed at the surface of Jurkat cells (human) (UniProt P55899); test: flow cytometry on cells; competitive binding on FcRn-transfected Jurkat cells; Alexa-labelled rituximab (30 ug/mL) with the tested molecule, PBS pH 6.0; mean of 2 experiments
[10] = target: His-tagged hFcγRIIIa (Sinobiological) (human) (UniProt P08637); test: SPR; Biacore T200, CM5 chip with anti-His capture; His-tagged hFcγRIIIa or mFcγRIV captured; 15 mM Tris-HCl, 150 mM NaCl, 0.005% Tween 20, pH 7.4, 25°C; single cycle (hFcγRIIIa) or multi cycle (mFcγRIV) kinetics; 1:1 Langmuir model, two state reaction model for LFBD192 on hFcγRIIIa
[11] = target: His-tagged mFcγRIV (R&D Systems) (mouse); test: as above
[12] = target: Recombinant human FcγRIIIa V/CD16aV (human); test: BLI; Octet RED96; His-tagged hFcγRIIIa V fixed on anti-penta-His (HIS-1K) biosensors; Fc samples 1,000-15.625 nM in kinetic buffer, pH 7.4; 1/1 model; means of 3 experiments
[13] = target: recombinant human FcRn receptor (FcRn alpha-chain and beta2-microglobulin heterodimer), biotinylated (human) (UniProt P55899); test: BLI; Octet RED96; biotinylated hFcRn fixed on streptavidin biosensors; Fc samples 200-3.125 nM; 0.1 M phosphate, 150 mM NaCl, 0.05% Tween 20, pH 6.0; 1/1 model; means of 3 experiments

Chain of UniProt P08637 (P08637 17-254): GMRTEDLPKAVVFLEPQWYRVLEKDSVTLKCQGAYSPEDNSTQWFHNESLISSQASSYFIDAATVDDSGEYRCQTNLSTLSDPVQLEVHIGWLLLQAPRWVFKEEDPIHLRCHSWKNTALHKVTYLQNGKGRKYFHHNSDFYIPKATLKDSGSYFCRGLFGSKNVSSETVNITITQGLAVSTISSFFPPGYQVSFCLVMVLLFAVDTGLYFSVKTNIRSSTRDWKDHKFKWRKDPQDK

Substance	IC50 [1] [nM]	IC50 [2] [nM]	IC50 [3] [nM]	IC50 [4] [nM]	IC50 [5] [nM]	IC50 of inhibition of IL-2 secretion by FcγRI-transfected Jurkat cells co-cultured with Raji cells coated with rituximab [6] [nM]	inhibitory concentration at 25% of IL-2 secretion by FcγRI-transfected Jurkat cells co-cultured with Raji cells coated with rituximab [6] [nM]	Kd [7] [nM]	Kd [8] [nM]	IC50 [9] [nM]	Kd [10] [nM]	Kd [11] [nM]	Kd [12] [nM]	Kd [13] [nM]
intravenous immunoglobulin (IVIg)	1680	1310	671	761	880	> 1950	1110	17.1	469	1360	40	554	–	–
rFc-WT (non-mutated Fc fragment of human IgG1) (domain or fragment)	–	–	–	–	–	–	–	–	–	–	–	–	504	36.5
